Measured values as given in patent publication US20090035321A1, “Intercellular adhesion molecules and their binding ligands” (Boehringer Ingelheim Pharmaceuticals, Inc., published 2009).

How the values were obtained:
Assay in all cases: 35S-HRV14 on COS cells
ICAM-1 R13/K = ICAM-1 R13/K (human, UniProt P05362)
Description: (§1) COS cells were seeded into 10 cm tissue culture plates such that they would be 50% confluent by 16-24 hrs. COS cells were then washed once with TBS and incubated for 4 hrs with 4 ml RPMI containing 10% Nu sera (Collaborative) 5 pg/ml chloroquine, 3 μg of mutant plasmid and 200 μg/ml DEAE-dextran sulfate. Cells were then washed with 10% DMSO/PBS followed by PBS and cultured 16 hrs in culture media. Culture media was replaced with fresh media and at 48 hrs post transfection (OS cells were suspended by trypsin/EDTA (Gibco) treatment and divided into 2, 10 cm plates as well as 24 well tissue culture plates for HRV binding. At 72 hrs cells were harvested from 10 cm plates with 5 mM EDTA/HBSS and processed for adhesion to LFA-1 coated plastic and immunofluorescence.
(§2) Binding occurred in 1 hr at 35° C. in a 5% CO₂ atmosphere with horizontal rotation (100 rpm). Unbound [³⁵S] HRV14 was aspirated, COS cells were gently washed with 150 ml of HRV buffer and then solubilized with 1% SDS in PBS for scintillation counting.
(§3) In Table 25, the notation for the mutations uses the one-letter code for the wild-type sequence followed by a slash and the one-letter code for the corresponding mutant sequence. The position of the first amino acid within the sequence is indicated. Wild type residues precede the slash followed by the residues they were substituted for in the mutant. COS cells expressing ICAM-1 mutants were tested for adherence to LFA-1 coated plastic and for binding 35S met-labeled HRV14. […] Binding is presented as mean and standard error (SE) for multiple experiments (n). […] The specific linear fluorescence intensity (SLFI) of CL203 for each mutant is normalized to that of wild type CL203 SLFI (% WT) as discussed above. The SLFI of RR1/1, R6.5 and LB-2 SLFI is normalized to the CL203 SLFI of the mutant (% CL203) as described above.

ICAM-1 Q62PM/API = ICAM-1 Q62PM/API (human, UniProt P05362)
Description: as §1, §2, §3

ICAM-1 N48/H = ICAM-1 N48/H (human, UniProt P05362)
Description: as §1, §2, §3

ICAM-1 G46NN/ASI = ICAM-1 G46NN/ASI (human, UniProt P05362)
Description: as §1, §2, §3

ICAM-1 S74/A = ICAM-1 S74/A (human, UniProt P05362)
Description: as §1, §2, §3

ICAM-1 S61/I = ICAM-1 S61/I (human, UniProt P05362)
Description: as §1, §2, §3

ICAM-1 K8/E = ICAM-1 K8/E (human, UniProt P05362)
Description: as §1, §2, §3

ICAM-1 D203TQ/TAD = ICAM-1 D203TQ/TAD (human, UniProt P05362)
Description: as §1, §2, §3

ICAM-1 D71GQS/NGEL = ICAM-1 D71GQS/NGEL (human, UniProt P05362)
Description: as §1, §2, §3

ICAM-1 D60/K = ICAM-1 D60/K (human, UniProt P05362)
Description: as §1, §2, §3

ICAM-1 Q58EDS/AKDI = ICAM-1 Q58EDS/AKDI (human, UniProt P05362)
Description: as §1, §2, §3

ICAM-1 V136GE/GVK = ICAM-1 V136GE/GVK (human, UniProt P05362)
Description: as §1, §2, §3

ICAM-1 R166PQ/EPA = ICAM-1 R166PQ/EPA (human, UniProt P05362)
Description: as §1, §2, §3

ICAM-1 Q1/K = ICAM-1 Q1/K (human, UniProt P05362)
Description: as §1, §2, §3

ICAM-1 T75/A = ICAM-1 T75/A (human, UniProt P05362)
Description: as §1, §2, §3

ICAM-1 D229QR/HLE = ICAM-1 D229QR/HLE (human, UniProt P05362)
Description: as §1, §2, §3

ICAM-1 D71/N = ICAM-1 D71/N (human, UniProt P05362)
Description: as §1, §2, §3

ICAM-1 Y66/T = ICAM-1 Y66/T (human, UniProt P05362)
Description: as §1, §2, §3

ICAM-1 E59/Q = ICAM-1 E59/Q (human, UniProt P05362)
Description: as §1, §2, §3

ICAM-1 K40/A = ICAM-1 K40/A (human, UniProt P05362)
Description: as §1, §2, §3

ICAM-1 E254DE/KEK = ICAM-1 E254DE/KEK (human, UniProt P05362)
Description: as §1, §2, §3

ICAM-1 R49KV/EKL = ICAM-1 R49KV/EKL (human, UniProt P05362)
Description: as §1, §2, §3

ICAM-1 Y52/FA = ICAM-1 Y52/FA (human, UniProt P05362)
Description: as §1, §2, §3

ICAM-1 T20CS/ACT = ICAM-1 T20CS/ACT (human, UniProt P05362)
Description: as §1, §2, §3

ICAM-1 N175/A = ICAM-1 N175/A (human, UniProt P05362)
Description: as §1, §2, §3

ICAM-1 K39KE/ERQ = ICAM-1 K39KE/ERQ (human, UniProt P05362)
Description: as §1, §2, §3

ICAM-1 Q73/H = ICAM-1 Q73/H (human, UniProt P05362)
Description: as §1, §2, §3

ICAM-1 H152HGA/EEGS = ICAM-1 H152HGA/EEGS (human, UniProt P05362)
Description: as §1, §2, §3

ICAM-1 Q73/T = ICAM-1 Q73/T (human, UniProt P05362)
Description: as §1, §2, §3

B1: human rhinovirus 14 (HRV14) (other)
chain: GAQVSTQKSGSHENQNILTNGSNQTFTVINYYKDAASTSSAGQSLSMDPSKFTEPVKDLMLKGAPALNSPNVEACGYSDRVQQITLGNSTITTQEAANAVVCYAEWPEYLPDVDASDVNKTSKPDTSVCRFYTLDSKTWTTGSKGWCWKLPDALKDMGVFGQNMFFHSLGRSGYTVHVQCNATKFHSGCLLVVVIPEHQLASHEGGNVSVKYTFTHPGERGIDLSSANEVGGPVKDVIYNMNGTLLGNLLIFPHQFINLRTNNTATIVIPYINSVPIDSMTRHNNVSLMVIPIAPLTVPTGATPSLPITVTIAPMCTEFSGIRSKSIVPQGLPTTTLPGSGQFLTTDDRQSPSALPNYEPTPRIHIPGKVHNLLEIIQVDTLIPMNNTHTKDEVNSYLIPLNANRQNEQVFGTNLFIGDGVFKTTLLGEIVQYYTHWSGSLRFSLMYTGPALSSAKLILAYTPPGARGPQDRREAMLGTHVVWDIGLQSTIVMTIPWTSGVQFRYTDPDTYTSAGFLSCWYQTSLILPPETTGQVYLLSFISACPDFKLRLMKDTQTISQTVALTEGLGDELEEVIVEKTKQTVASISSGPKHTQKVPILTANETGATMPVLPSDSIETRTTYMHFNGSETDVECFLGRAACVHVTEIQNKDATGIDNHREAKLFNDWKINLSSLVQLRKKLELFTYVRFDSEYTILATASQPDSANYSSNLVVQAMYVPPGAPNPKEWDDYTWQSASNPSVFFKVGDTSRFSVPYVGLASAYNCFYDGYSHDDAETQYGITVLNHMGSMAFRIVNEHDEHKTLVKIRVYHRAKHVEAWIPRAPRALPYTSIGRTNYPKNTEPVIKKRKGDIKSY
modifications: [35S]-Met labeled
With B1 the “HRV Binding %” value (ICAM-1 R13/K) was 123 % of wild type, the “HRV Binding %” value (ICAM-1 Q62PM/API) was 182 % of wild type and the “HRV Binding %” value (ICAM-1 N48/H) was 81 % of wild type. For the same binder, the “HRV Binding %” value (ICAM-1 G46NN/ASI) was 9 % of wild type, the “HRV Binding %” value (ICAM-1 S74/A) was 156 % of wild type and the “HRV Binding %” value (ICAM-1 S61/I) was 111 % of wild type. For the same binder, the “HRV Binding %” value (ICAM-1 K8/E) was 132 % of wild type, the “HRV Binding %” value (ICAM-1 D203TQ/TAD) was 111 % of wild type and the “HRV Binding %” value (ICAM-1 D71GQS/NGEL) was 21 % of wild type. For the same binder, the “HRV Binding %” value (ICAM-1 D60/K) was 4 % of wild type, the “HRV Binding %” value (ICAM-1 Q58EDS/AKDI) was 0 % of wild type and the “HRV Binding %” value (ICAM-1 V136GE/GVK) was 117 % of wild type. The “HRV Binding %” value (ICAM-1 R166PQ/EPA) was 25 % of wild type, the “HRV Binding %” value (ICAM-1 Q1/K) was 78 % of wild type and the “HRV Binding %” value (ICAM-1 T75/A) was 119 % of wild type. The “HRV Binding %” value (ICAM-1 D229QR/HLE) was 106 % of wild type, the “HRV Binding %” value (ICAM-1 D71/N) was 62 % of wild type and the “HRV Binding %” value (ICAM-1 Y66/T) was 204 % of wild type. The “HRV Binding %” value (ICAM-1 E59/Q) was 92 % of wild type, the “HRV Binding %” value (ICAM-1 K40/A) was 89 % of wild type and the “HRV Binding %” value (ICAM-1 E254DE/KEK) was 99 % of wild type. For the same binder, the “HRV Binding %” value (ICAM-1 R49KV/EKL) was 49 % of wild type, the “HRV Binding %” value (ICAM-1 Y52/FA) was 125 % of wild type and the “HRV Binding %” value (ICAM-1 T20CS/ACT) was 130 % of wild type. For the same binder, the “HRV Binding %” value (ICAM-1 N175/A) was 129 % of wild type, the “HRV Binding %” value (ICAM-1 K39KE/ERQ) was 61 % of wild type and the “HRV Binding %” value (ICAM-1 Q73/H) was 117 % of wild type. For the same binder, the “HRV Binding %” value (ICAM-1 H152HGA/EEGS) was 82 % of wild type and the “HRV Binding %” value (ICAM-1 Q73/T) was 133 % of wild type.
